Experimental data taken from the nanobody polyreactivity screen of Harvey et al. (2022).

Assay: yeast display, Sf9 membrane polyspecificity reagent, FACS + sequencing; frameworks hold sequencing errors
Summary of the method: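 Nanobodies from a synthetic yeast display library (Saccharomyces cerevisiae BJ5465), induced 36–48 hours with galactose, were stained 1 hour at 4 °C with 10% biotinylated, detergent-solubilized Sf9 membrane reagent, enriched on streptavidin microbeads, then FACS-sorted. Anti-HA (expression) and streptavidin (reagent binding) fluorescence set low and high (top ~1%) gates. Polyreactivity labels come from the gate of origin. Genes were colony-PCR amplified, MiSeq 2 × 250 sequenced and filtered by CDR length.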

| Sequence | polyreactivity (PSR sort gate) |
| --- | --- |
| QVQLVESGGGLVQAGGSLRLSCAASGRIFSTYTMGWYRQAPGKEMELVAAIRANGGSTYYADSVKGRFTISRDNAKNTVYLQMNSLKPEDTAVYYCAALYRRYPYHYDSWGQGTQVTVSS | high polyreactivity |
| QVQLVESGGGLVQAGGSLRLSCAASGRIFSVNAMGWYRQATGKERELVASITMSGGSTYYADSVKGRFTISRDNAKNTVYIQMNSLKPEDTAVYYCAKGWSRYNDRERDDEYWGQGTQVTVSS | low polyreactivity |
| QVQLVESGGGLVQAGGSLRLSCAASGRIFSVNVMVWYRQAPGKERELVAAITWSVGSTYYADSVKARFTISRDNAKYTVSLQMYSLKPEDTAVYYSAARVPPVYGRVGGYHYWGQGTQVTVSS | low polyreactivity |
| QVQLVESGGGLVQAGGSLRLSCAASGRIFSVYAMGWSRQAPGKERELVATIRWGGGSTYYADSVKGRFTISRDNAKNTVYLQMNSLKPEDTAVYYCAAGWRGGRYRYFAYDYWGQGTQVTVSS | high polyreactivity |
| QVQLVESGGGLVQAGGSLRLSCAASGRIFSVYAMGWYRQAPGKERELVAGITSSGGSTYYADSVKGRFTISRDNAKNTVYLQMNSLKPEDTAVYYCNAYSQYWLGNNYWGQGTQVTVSS | high polyreactivity |
| QVQLVESGGGLVQAGGSLRLSCAASGRIFSVYSMGWYRQAPGKERELVAAIRSGDRTNYADSVKGRFTISRDNAKNTVYLQMISLKPEVTAVYYCAAVRYPNWYDYWGHGTQVTVSS | high polyreactivity |
| QVQLVESGGGLVQAGGSLRLSCAASGRIFSWYAMGWYRQAPGKERELVAAISWNGGSTYYADSVKGRFTISRDNAKNTVYLQMNSLKPEDTAVYYCAATYRHYGYDSWGQGTQVTVSS | high polyreactivity |
| QVQLVESGGGLVQAGGSLRLSCAASGRIFSWYAMGWYRQAPGKEREMVARITTRGGNTYYADSVKGRFTISRDNAKNTVFLQMNSLKPEDTAVYYCAARHPYPIYDYWGQGTQVTVSS | low polyreactivity |
| QVQLVESGGGLVQAGGSLRLSCAASGRIFSWYDMGWDRQAPGKERELVAAISSGGSTIYADSVKGRFTISRDNAKQTVYLQMNSLKPEDTAVSYCNKSPSWWRYKTGLDYWGQGTQVTVSS | high polyreactivity |
| QVQLVESGGGLVQAGGSLRLSCAASGRIFSYAMGWYRQAPGKERELVAGISRSGGSTYYADSVKGRFTISRDNAKNTVYLQMNSLKPEDTAVYYCAAVKIRTVYKYNYWGQGTQVTVSS | high polyreactivity |
| QVQLVESGGGLVQAGGSLRLSCAASGRIFSYNAMGWYRQAPGKERELVAAIRVRGGSTYYADSVKGRFTLSRDNAKNTVYLQMNSLKPEDTAVYYCNASDYKISATNAVVRYYYWGQGTQVTVSS | high polyreactivity |
| QVQLVESGGGLVQAGGSLRLSCAASGRIFSYNAMGWYRQAPGKERELVAAISSGGSTYYADSVKGRFTISRDNAKNTVYLQMNSLKPEDTAVYYCAADRRYYSDMYYWGQGTQVTVSS | low polyreactivity |
| QVQLVESGGGLVQAGGSLRLSCAASGRIFSYNAMGWYRQAPGKERELVAAISYRGGSTYYADSVKGRFTISRDNAKNTVYLQMNSLKPEDTAVYYCNAEAYYPYGYDYWGQGTQVSVSS | low polyreactivity |
| QVQLVESGGGLVQAGGSLRLSCAASGRIFSYNAMGWYRQAPGKERELVAAITGGGSTNYADSVQGRFTISRDNAKNTVYLHMTSLKPEDTAVYYCAADARGYGYYYWGQGTQVTVSS | high polyreactivity |
| QVQLVESGGGLVQAGGSLRLSCAASGRIFSYNAMGWYRQAPGQERELVAAITTGGSTYYADSVKGRFTISRDNAKNTVYLQMNSLKPEDTAVYYCNKLGYYYDRRYDYWRQGTQVTVSS | high polyreactivity |
| QVQLVESGGGLVQAGGSLRLSCAASGRIFSYNARGWYRQAPGKERELVAAISSDGSTYYADSVKGRFTISRDNAKNTVYLQMNSRKPEDTAVYYCAARQVLWFDYTTAQVGSYKVNSWGQGTQVTVSS | low polyreactivity |
| QVQLVESGGGLVQAGGSLRLSCAASGRIFSYNVMGWYRQAPGKERELVAAITSNDGSTYYADSVKGRFTISRDNAKNTVYLQMNSLKPEVTAVYYCNADYGPVSLKEPFRDDYWGQGNQVTVSS | low polyreactivity |
| QVQLVESGGGLVQAGGSLRLSCAASGRIFSYYALGWYRQAPGKERELVAAISSRGGSTYYADSVKGRFTISRDNAKNTVYLQMNSLKPEDTAVYYCNAYVYQVIGHDYWGQGTQVTVSS | high polyreactivity |
| QVQLVESGGGLVQAGGSLRLSCAASGRIFSYYAMGWYRQAPGKERELVAAISRTGGTTYYADSVKGRFTISRDNAKNTVYLQMNSLNPEDTAVYYCYAVKAPYMRYDYWGQGTQVTVSS | high polyreactivity |
| QVQLVESGGGLVQAGGSLRLSCAASGRIFSYYAMGWYRQAPGKERELVAAISTSGGNTYYADSVKGRFTISRDNAKNTVYLQMNSLLTEDTAVYYCAAAYFSSGYKYYYWGQGTQVSVSS | high polyreactivity |
| QVQLVESGGGLVQAGGSLRLSCAASGRIFSYYAMGWYRQAPGKERELVAAISYSTTSTYYADSVKGRFTISRDNAKNTVYLQMNSLKPEDTAVYYCAAEFQPGSYTPTYDYWGQGTQVTVSS | low polyreactivity |
| QVQLVESGGGLVQAGGSLRLSCAASGRIFSYYAMGWYRQAPGKERELVATISGSGGSTYYADSVKGRFTISRDNAKNTVFLQMNSLKPEDTAVYYCAATGFIFRGRVRAIPRRYNYWGQGTQVTVSS | high polyreactivity |

| Sequence | polyreactivity (PSR sort gate) |
| --- | --- |
| QVQLVESGGGLVQAGGSLRLSCAASGRIFSYYTMGGYRQAPGTERELVAAISSGGSTNYADSVKGRFTISRDNAKNTVYLQMNSLKPEDTAVYYCAVRSGRRNYDRPAFGYWGQGTQVTVSS | high polyreactivity |
| QVQLVESGGGLVQAGGSLRLSCAASGRIFSYYTMGWYRQAPGKEREFVAAISWNDGSTYYADSVKGRFTISRDNSKNTVYLQMNSLKPEDTAVYYCAAEYHYFWWRMDYWGQGTQVTVSS | high polyreactivity |
| QVQLVESGGGLVQAGGSLRLSCAASGRIFSYYTMGWYRQAPGKERELVAAITSGDSTNYADSVKGRFTISRDNAKNTVYLQMNSLKPEDTAVYYCNARYSWWRSRVGSSHGPDGYWGQGTQVTVSS | high polyreactivity |
| QVQLVESGGGLVQAGGSLRLSCAASGRIFTANAMGWYRQAPGKERELVAAITSGTRTNYADSVKGRFTISRDNAKNTVYLQMNSLKPEDTAVFYCAKETATSKYDYWGQGTQVTVSS | low polyreactivity |
| QVQLVESGGGLVQAGGSLRLSCAASGRIFTFYAMGWYRQAPGKERELVAAITSGGSTYYADSVKGRFTISRDNAKKTVYLQMNSLKPEDTAVYYCNTYPGSRHGWYDYWGQVTQVTVSS | high polyreactivity |
| QVQLVESGGGLVQAGGSLRLSCAASGRIFTGNAMGWYRQAPGKERELVAAISSRGGRTYYADSVKGRFTISRDNAKNTVYLQMNSLKPEDTAVYYCNAVAVAASRAYSWYDYWGQGTQVTVSS | high polyreactivity |
| QVQLVESGGGLVQAGGSLRLSCAASGRIFTGYALGWYRQAPGKERELVAAISRGGSTNYADSVKGRFTISRDNAKNTVYLQMNSLKPEDTAVYYCAAGVHWDRGDYWGQGTQVTVSS | low polyreactivity |
| QVQLVESGGGLVQAGGSLRLSCAASGRIFTGYAMGWYRQAPGKERELVAAISRGGSTNYADSVKGRFTISRDNAKNSVYLQMNSLKPEDTAVYYCAAGVHWDRGDYWGQGTQVTVSS | low polyreactivity |
| QVQLVESGGGLVQAGGSLRLSCAASGRIFTGYAMGWYRQAPGKERELVATIRSRGGGTYYADSVKGRFTISRDNAKNTVYLQMNSLKPEDTAVYYCAADDYYYYFGTRYGYWGQGTQVTVSS | low polyreactivity |
| QVQLVESGGGLVQAGGSLRLSCAASGRIFTGYTMGWYRQAPGKERELVAGITRGGSTYYADSVKGRFTISRDNAKNTVYLQMNSLKPEDTAVYYCAADYPRFWYHSWYVPAYYYWGQGTQVTVSS | high polyreactivity |
| QVQLVESGGGLVQAGGSLRLSCAASGRIFTHNAIGWYRQAPGKERELVAGISYGGGSTYYADSVKGRFTISRDNAKITVYLQMNSLKPEDTAVYYCIAYIYDTYYWGQGTQVTVSS | low polyreactivity |
| QVQLVESGGGLVQAGGSLRLSCAASGRIFTHNAMGWYRQAPGKERELVAAISSIGGSTYYADSVKGRFTISRDNAKNTVYLQMNSLKPEDTAVYYCAVKRPLYGDSEYYYWGQGTQVTVSS | low polyreactivity |
| QVQLVESGGGLVQAGGSLRLSCAASGRIFTHNTMGWYRQAPGKERELVAAISSSGGSTYYADSVKGRFTISRDNAKNTVYLQMNSLKPDDTAVYYCNTLIKGRWIVVGYGYPGYDYWGQGTQVTVSS | high polyreactivity |
| QVQLVESGGGLVQAGGSLRLSCAASGRIFTIYAMGWSRQAPGKERELVAAITVSTGSTYYADSVKGRFTISRDNAKNTVYLQMKSLKPEDTAVYYCAKRGQSYTYRRYDYWGQGTQVTVSS | low polyreactivity |
| QVQLVESGGGLVQAGGSLRLSCAASGRIFTIYAMGWYRQAPGKERELVAGIRGGGSTNYADSVKGRFTISRDNAKNTVYLLMNSLKPEDTAVYYCAAEVRRYVIVPYYYWGQGTQVTVSS | high polyreactivity |
| QVQLVESGGGLVQAGGSLRLSCAASGRIFTIYAMGWYRQAPGKERELVATISSNVGSTYYADSVKGRFTISRDNAKNTVYLQMNSLKPEDTAVYYCAATRRAGFTTAKFDYWGQGTQVTVSS | high polyreactivity |
| QVQLVESGGGLVQAGGSLRLSCAASGRIFTKNTKGWYRQAPGKERELVAAIRSRAGSTYYADSVKGRFTISRDNAKNTVYLQMNSLKPEDTAVYYCAVPWFRSVDFDYWGQGTQVTVSS | low polyreactivity |
| QVQLVESGGGLVQAGGSLRLSCAASGRIFTKYAMGWYRQAPGKERELVAAISSRGGSTYYADSVKGRFTISRDNAKNTVYLQMNSLKPEDTAVYYCAAGYLPRYYYTPQFDGDYWGQGTQVTVSS | high polyreactivity |
| QVQLVESGGGLVQAGGSLRLSCAASGRIFTKYAMGWYRQAPGKERELVAGINWRDGRTYYADSVKGRFTLSRDNAKNTVYLQMISLKPVDTAVYYCAGVSIFGRRWMYYWGQGTQVTVSS | high polyreactivity |
| QVQLVESGGGLVQAGGSLRLSCAASGRIFTPYAMGWYRQAPGKERELVAGISSSGGSTYYADSVKGRFTISRDNAKNTVYLQMNSLKPEDTAVYFCNKRYRGTPRSYDYWGQGTQVTVSS | high polyreactivity |
| QVQLVESGGGLVQAGGSLRLSCAASGRIFTRNAMGLYRQAPGKERELVAAISWRGGSTYYADSVKGRFTISRDNAKNTVYLQMNSLKPEDTAVYYCAAQPWFGRAARYRTTYYYWGQGTQVTVSS | high polyreactivity |
